Assay results taken from patent US20260152546A1.
Like-named read-outs stand apart in the source and are kept apart here.

Legend:
[1] = biological target: HIV-1 Env of the BG505 strain (on pseudovirus) (HIV-1)
[2] = biological target: HIV-1 Env of the BG505 strain (on pseudovirus) (HIV-1); remark: listed apart in the source
[3] = biological target: panel of 208 geographically and genetically diverse HIV-1 Env pseudoviruses
[4] = biological target: panel of 208 geographically and genetically diverse HIV-1 Env pseudoviruses; remark: listed apart in the source
[5] = biological target: HIV-1 Env of pseudovirus ZM233.6 (clade C) (HIV-1)
[6] = biological target: HIV-1 Env of pseudovirus ZM233.6 (clade C) (HIV-1); remark: listed apart in the source
[7] = biological target: HIV-1 Env of the BG505 strain (on pseudovirus) (HIV-1); remark: listed apart in the source
[8] = biological target: HIV-1 Env of pseudovirus 191821.E6.1 (clade D) (HIV-1)
[9] = biological target: HIV-1 Env of pseudovirus 246-F3.C10.2 (clade AC) (HIV-1)
[10] = biological target: HIV-1 Env of pseudovirus 16936-2.21 (clade C) (HIV-1)
[11] = biological target: HIV-1 Env of pseudovirus CH038.12 (clade BC) (HIV-1)
[12] = biological target: HIV-1 Env of pseudovirus CAP256.206.C9 (clade C) (HIV-1)
[13] = biological target: HIV-1 Env of pseudovirus Q259.17 (clade A) (HIV-1)

Molecule | IC50 [1] | IC80 [1] | % of viruses neutralized, IC50 50 µg/mL [3] | Mean IC50 (geometric mean, samples with IC50 < 50 µg/mL) [3] | Median IC50 (samples with IC50 < 50 µg/mL) [3] | % of viruses neutralized, IC80 < 1.0 µg/mL [4] | Mean IC80 (geometric mean, samples with IC80 < 50 µg/mL) [4] | Median IC80 (samples with IC80 < 50 µg/mL) [4] | also measured
PGT145 N(100l)D (antibody) | 0.003 µg/mL | 0.01 µg/mL |  |  |  |  |  |  | 
PG9RSH N(100f)Y (antibody, V domains shown) VH: ERLVESGGGVVQPGSSLRLSCAASGFDFSRQGMHWVRQAPGQGLEWVAFIKYDGSEKYHADSVWGRLSISRDNSKDTLYLQMNSLRVEDTATYFCVREAGGPDYRNGYYYYDFYDGYYNYHYMDVWGKGTTVTVSS VL: QSALTQPASVSGSPGQSITISCQGTSNDVGGYESVSWYQQHPGKAPKVVIYDVSKRPSGVSNRFSGSKSGNTASLTISGLQAEDEGDYYCKSLTSRSHRVFGTGTKLTVLG |  |  | 83% | 0.04 µg/mL | 0.025 µg/mL | 62% | 0.106 µg/mL | 0.086 µg/mL | IC50 [2]: 0.009 µg/mL; IC80 [2]: 0.023 µg/mL; fold decrease in IC50 relative to wild type [5]: 63 fold
PG9RSH Y(100k)D (antibody, V domains shown) VH: ERLVESGGGVVQPGSSLRLSCAASGFDFSRQGMHWVRQAPGQGLEWVAFIKYDGSEKYHADSVWGRLSISRDNSKDTLYLQMNSLRVEDTATYFCVREAGGPDYRNGYNYYDFDDGYYNYHYMDVWGKGTTVTVSS VL: QSALTQPASVSGSPGQSITISCQGTSNDVGGYESVSWYQQHPGKAPKVVIYDVSKRPSGVSNRFSGSKSGNTASLTISGLQAEDEGDYYCKSLTSRSHRVFGTGTKLTVLG |  |  | 87% | 0.035 µg/mL | 0.017 µg/mL | 63% | 0.078 µg/mL | 0.058 µg/mL | IC50 (variant) [6]: 0.001 µg/mL; fold-change in IC50 between wild type and variant [6]: 110 fold; IC50 [7]: 0.004 µg/mL; IC80 [7]: 0.01 µg/mL
PGT145 (antibody, V domains shown) VH: QVQLVQSGAEVKKPGSSVKVSCKASGNSFSNHDVHWVRQATGQGLEWMGWMSHEGDKTGLAQKFQGRVTITRDSGASTVYMELRGLTADDTAIYYCLTGSKHRLRDYFLYNEYGPNYEEWGDYLATLDVWGHGTAVTVSS VL: EVVITQSPLFLPVTPGEAASLSCKCSHSLQHSTGANYLAWYLQRPGQTPRLLIHLATHRASGVPDRFSGSGSGTDFTLKISRVESDDVGTYYCMQGLHSPWTFGQGTKVEIKR | 0.01 µg/mL | 0.253 µg/mL | 75% | 0.086 µg/mL | 0.053 µg/mL | 39% | 0.343 µg/mL | 0.276 µg/mL | IC50 (WT) [8]: 3.35 µg/mL; IC50 (WT) [9]: 17.4 µg/mL; IC50 (WT) [10]: 5.14 µg/mL; IC50 (WT) [11]: 46.5 µg/mL; IC50 (WT) [12]: 3.95 µg/mL; IC50 (WT) [13]: 45 µg/mL
